Laboratory results: publication PMC7331980, “Dynamic rotation of the protruding domain enhances the infectivity of norovirus” (PLoS Pathogens, 2020)

B1: VP1 capsid protein of murine norovirus type 1 (MNoV-1), as the capsid of infectious particles (natural protein)
chain: MRMSDGAAPKANGSEASGQDLVPAAVEQAVPIQPVAGAALAAPAAGQINQIDPWIFQNFVQCPLGEFSISPRNTPGEILFDLALGPGLNPYLAHLSAMYTGWVGNMEVQLVLAGNAFTAGKVVVALVPPYFPKGSLTTAQITCFPHVMCDVRTLEPIQLPLLDVRRVLWHATQDQEESMRLVCMLYTPLRTNSPGDESFVVSGRLLSKPAADFNFVYLTPPIERTIYRMVDLPVIQPRLCTHARWPAPVYGLLVDPSLPSNPQWQNGRVHVDGTLLGTTPISGSWVSCFAAEAAYKFQSGTGEVATFTLIEQDGSAYVPGDRAAPLGYPDFSGQLEIEVQTETTKTGDKLKVTTFEMILGPTTNADQAPYQGRVFASVTAAASLDLVDGRVRAVPRSIYGFQDTIPEYNDGLLVPLAPPIGPFLPGEVLLRFRTYMRQIDTADAAAEAIDCALPQEFVSWFASNAFTVQSEALLLRYRNTLTGQLLFECKLYNEGYIALSYSGSGPLTFPTDGIFEVVSWVPRLYQLASVGSLATGRMLKQ
notes: also called MNoV-1 infectious particles; MNoV-1 particles; copies: 180
B2: VP1 capsid protein of murine norovirus type 1 (MNoV-1), as virus-like particles (natural protein, UniProt Q80J94 1-541, looked up)
chain: B1 chain
notes: Major capsid protein VP1 of murine norovirus type 1 (MNoV-1); Formed three types of particles: one large (T = 4) and two small (T = 3, resting and rising P domain conformations), so no single copy number; also called MNoV-1 VLPs; VLPs of MNoV-1; source: baculovirus expression system, purified (CsCl equilibrium ultracentrifugation), stored in DMEM

Columns and labels:
[1] = molecular target: the molecule itself; experiment: cryo-EM structure; single-particle cryo-EM at 200 kV (JEM2200FS); purified particles suspended in DMEM; icosahedral reconstruction
[2] = molecular target: the molecule itself; experiment: cryo-EM structure; single-particle analysis (RELION) of MNoV-1 VLPs stored in DMEM; three types of particles reconstructed

Protein	binding result [1]	binding result [2]
B1	binds	–
B2	–	binds
